Molecular target: multiubiquitinated proteins (of HEK293T cells)
Experiment: cell-based or functional assay

Flag-tagged hFAF1 (human Fas associated factor 1, full form), sequence (Q9UNN5 other isoform, or with tags, fused parts or gaps): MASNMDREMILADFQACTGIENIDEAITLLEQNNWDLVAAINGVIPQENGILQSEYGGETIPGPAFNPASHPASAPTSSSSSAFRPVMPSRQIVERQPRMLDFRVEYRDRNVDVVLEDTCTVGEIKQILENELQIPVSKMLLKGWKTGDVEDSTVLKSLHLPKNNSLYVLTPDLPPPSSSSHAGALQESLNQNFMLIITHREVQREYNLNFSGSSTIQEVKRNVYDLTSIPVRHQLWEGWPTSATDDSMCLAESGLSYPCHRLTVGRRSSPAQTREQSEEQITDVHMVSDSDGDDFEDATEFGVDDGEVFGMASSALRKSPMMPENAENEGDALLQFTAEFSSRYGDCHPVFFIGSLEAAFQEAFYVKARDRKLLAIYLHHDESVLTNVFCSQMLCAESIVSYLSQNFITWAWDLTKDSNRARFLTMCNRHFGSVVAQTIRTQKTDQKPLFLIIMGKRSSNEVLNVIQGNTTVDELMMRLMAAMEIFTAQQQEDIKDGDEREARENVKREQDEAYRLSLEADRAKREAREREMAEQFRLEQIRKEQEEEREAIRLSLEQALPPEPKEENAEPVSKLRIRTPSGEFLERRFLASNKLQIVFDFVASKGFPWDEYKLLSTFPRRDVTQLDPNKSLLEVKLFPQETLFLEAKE

mean fluorescence intensity of the Ub^G76V-GFP reporter (flow cytometry): 2 fold
Substance: Flag-tagged hFAF1 (human Fas associated factor 1, full form) (from UniProt Q9UNN5 1-650)
